Experimental data taken from article PMC6446905 (Science (New York, N.Y.), 2018).

B1: TAF5 (natural protein, human (endogenous in HeLa), UniProt Q15542 1-800, looked up)
chain: MAALAEEQTEVAVKLEPEGPPTLLPPQAGDGAGEGSGGTTNNGPNGGGGNVAASSSTGGDGGTPKPTVAVSAAAPAGAAPVPAAAPDAGAPHDRQTLLAVLQFLRQSKLREAEEALRREAGLLEEAVAGSGAPGEVDSAGAEVTSALLSRVTASAPGPAAPDPPGTGASGATVVSGSASGPAAPGKVGSVAVEDQPDVSAVLSAYNQQGDPTMYEEYYSGLKHFIECSLDCHRAELSQLFYPLFVHMYLELVYNQHENEAKSFFEKFHGDQECYYQDDLRVLSSLTKKEHMKGNETMLDFRTSKFVLRISRDSYQLLKRHLQEKQNNQIWNIVQEHLYIDIFDGMPRSKQQIDAMVGSLAGEAKREANKSKVFFGLLKEPEIEVPLDDEDEEGENEEGKPKKKKPKKDSIGSKSKKQDPNAPPQNRIPLPELKDSDKLDKIMNMKETTKRVRLGPDCLPSICFYTFLNAYQGLTAVDVTDDSSLIAGGFADSTVRVWSVTPKKLRSVKQASDLSLIDKESDDVLERIMDEKTASELKILYGHSGPVYGASFSPDRNYLLSSSEDGTVRLWSLQTFTCLVGYKGHNYPVWDTQFSPYGYYFVSGGHDRVARLWATDHYQPLRIFAGHLADVNCTRFHPNSNYVATGSADRTVRLWDVLNGNCVRIFTGHKGPIHSLTFSPNGRFLATGATDGRVLLWDIGHGLMVGELKGHTDTVCSLRFSRDGEILASGSMDNTVRLWDAIKAFEDLETDDFTTATGHINLPENSQELLLGTYMTKSTPVVHLHFTRRNLVLAAGAYSPQ
B4: TAF6 (natural protein)
chain: not shown

How the values were obtained:
Test in all cases: cryo-EM structure
TAF4 = molecular target: T1, TAF4 (human (endogenous in HeLa), UniProt O00268 1-1085)
T1 sequence (looked up): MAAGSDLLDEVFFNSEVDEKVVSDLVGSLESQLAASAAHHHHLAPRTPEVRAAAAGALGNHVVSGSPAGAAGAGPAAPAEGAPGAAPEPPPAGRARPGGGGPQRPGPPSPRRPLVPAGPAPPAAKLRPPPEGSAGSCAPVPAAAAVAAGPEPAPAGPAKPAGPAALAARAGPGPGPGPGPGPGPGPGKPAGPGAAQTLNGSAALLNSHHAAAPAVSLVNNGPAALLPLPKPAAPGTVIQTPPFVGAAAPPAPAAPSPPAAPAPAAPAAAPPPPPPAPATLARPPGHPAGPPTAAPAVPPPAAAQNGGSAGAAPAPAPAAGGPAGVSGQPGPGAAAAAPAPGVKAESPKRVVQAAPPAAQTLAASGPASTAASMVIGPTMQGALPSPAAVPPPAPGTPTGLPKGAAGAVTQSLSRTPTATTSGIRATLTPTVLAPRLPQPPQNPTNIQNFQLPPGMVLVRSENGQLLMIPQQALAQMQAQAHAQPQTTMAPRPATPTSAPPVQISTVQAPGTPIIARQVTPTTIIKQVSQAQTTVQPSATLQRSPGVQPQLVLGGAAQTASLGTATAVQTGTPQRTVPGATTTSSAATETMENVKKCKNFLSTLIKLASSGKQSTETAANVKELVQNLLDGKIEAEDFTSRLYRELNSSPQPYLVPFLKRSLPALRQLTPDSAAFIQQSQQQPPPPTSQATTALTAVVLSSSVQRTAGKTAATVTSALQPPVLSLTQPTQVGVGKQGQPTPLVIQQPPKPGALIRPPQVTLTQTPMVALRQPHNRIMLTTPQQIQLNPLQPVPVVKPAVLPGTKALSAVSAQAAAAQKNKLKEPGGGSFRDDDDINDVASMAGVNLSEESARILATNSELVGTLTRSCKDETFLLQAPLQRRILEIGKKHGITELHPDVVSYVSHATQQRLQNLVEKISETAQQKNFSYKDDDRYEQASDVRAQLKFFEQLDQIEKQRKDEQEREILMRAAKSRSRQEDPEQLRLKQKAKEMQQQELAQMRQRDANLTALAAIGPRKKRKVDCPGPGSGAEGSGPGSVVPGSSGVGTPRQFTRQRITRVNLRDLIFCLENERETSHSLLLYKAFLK

TAF2 = molecular target: T2, TAF2 (human (endogenous in HeLa), UniProt Q6P1X5 1-1199)
T2 sequence (looked up): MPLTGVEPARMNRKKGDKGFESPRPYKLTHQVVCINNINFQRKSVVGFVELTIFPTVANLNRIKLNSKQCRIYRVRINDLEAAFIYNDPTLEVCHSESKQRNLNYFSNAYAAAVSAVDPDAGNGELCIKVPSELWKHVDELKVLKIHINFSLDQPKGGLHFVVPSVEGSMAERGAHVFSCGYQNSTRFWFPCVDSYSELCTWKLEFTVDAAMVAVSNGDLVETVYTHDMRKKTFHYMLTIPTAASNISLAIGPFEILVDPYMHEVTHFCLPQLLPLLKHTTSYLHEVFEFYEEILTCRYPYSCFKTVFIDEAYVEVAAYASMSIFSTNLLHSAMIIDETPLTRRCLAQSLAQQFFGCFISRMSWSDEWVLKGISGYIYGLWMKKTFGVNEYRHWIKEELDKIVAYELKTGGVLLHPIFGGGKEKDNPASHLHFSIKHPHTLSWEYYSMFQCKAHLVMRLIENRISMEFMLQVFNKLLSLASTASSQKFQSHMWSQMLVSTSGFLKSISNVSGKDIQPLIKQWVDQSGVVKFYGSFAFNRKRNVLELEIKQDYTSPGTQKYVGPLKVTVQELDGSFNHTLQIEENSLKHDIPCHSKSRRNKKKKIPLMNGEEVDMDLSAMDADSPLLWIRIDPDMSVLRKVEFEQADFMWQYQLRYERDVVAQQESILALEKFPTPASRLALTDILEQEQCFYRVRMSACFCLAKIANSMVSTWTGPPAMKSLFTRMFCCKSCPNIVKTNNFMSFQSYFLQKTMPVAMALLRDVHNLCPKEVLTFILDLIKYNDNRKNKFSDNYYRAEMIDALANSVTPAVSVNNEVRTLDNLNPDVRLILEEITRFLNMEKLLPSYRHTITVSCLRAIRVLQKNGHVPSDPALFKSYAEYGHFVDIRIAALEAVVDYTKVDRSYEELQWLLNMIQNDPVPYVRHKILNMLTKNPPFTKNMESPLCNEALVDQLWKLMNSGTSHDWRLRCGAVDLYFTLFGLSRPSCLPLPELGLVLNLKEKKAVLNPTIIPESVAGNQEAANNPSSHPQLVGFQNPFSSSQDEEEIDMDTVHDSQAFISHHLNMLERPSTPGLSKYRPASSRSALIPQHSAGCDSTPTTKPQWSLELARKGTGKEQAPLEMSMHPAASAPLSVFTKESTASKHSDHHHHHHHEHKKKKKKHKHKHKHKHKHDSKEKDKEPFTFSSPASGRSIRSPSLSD

TAF5 = molecular target: B1
TAF6 = molecular target: B4
TAF6, sequence (P49848 whole entry): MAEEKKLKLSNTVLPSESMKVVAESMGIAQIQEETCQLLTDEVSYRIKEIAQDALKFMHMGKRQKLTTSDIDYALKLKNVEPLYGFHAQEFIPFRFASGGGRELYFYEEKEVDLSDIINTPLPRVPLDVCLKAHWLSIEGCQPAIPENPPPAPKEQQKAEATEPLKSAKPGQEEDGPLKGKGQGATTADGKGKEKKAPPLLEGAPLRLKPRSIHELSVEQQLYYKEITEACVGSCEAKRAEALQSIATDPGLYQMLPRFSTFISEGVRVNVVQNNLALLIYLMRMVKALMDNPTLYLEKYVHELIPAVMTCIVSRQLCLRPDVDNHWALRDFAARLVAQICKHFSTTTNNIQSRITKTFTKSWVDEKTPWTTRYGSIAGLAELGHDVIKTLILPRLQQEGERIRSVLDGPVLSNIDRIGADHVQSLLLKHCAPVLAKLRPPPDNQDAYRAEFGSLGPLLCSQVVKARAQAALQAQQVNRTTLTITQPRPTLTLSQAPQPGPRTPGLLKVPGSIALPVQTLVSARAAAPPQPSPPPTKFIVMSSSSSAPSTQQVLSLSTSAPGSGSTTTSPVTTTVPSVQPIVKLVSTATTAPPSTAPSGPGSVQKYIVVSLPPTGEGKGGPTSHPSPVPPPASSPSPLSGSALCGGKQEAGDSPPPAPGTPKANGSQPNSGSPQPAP

cryo-EM structure = molecular target: the molecule itself

Q: Does B1 bind (TAF4)?
A: binds

B2: TAF12 (natural protein, human (endogenous in HeLa), UniProt Q16514 1-161, looked up)
chain: MNQFGPSALINLSNFSSIKPEPASTPPQGSMANSTAVVKIPGTPGAGGRLSPENNQVLTKKKLQDLVREVDPNEQLDEDVEEMLLQIADDFIESVVTAACQLARHRKSSTLEVKDVQLHLERQWNMWIPGFGSEEIRPYKKACTTEAHKQRMALIRKTTKK
Q: Does B2 bind (TAF4)?
A: binds

B3: TAF8 (natural protein, human (endogenous in HeLa), UniProt Q7Z7C8 1-310, looked up)
chain: MADAAATAGAGGSGTRSGSKQSTNPADNYHLARRRTLQVVVSSLLTEAGFESAEKASVETLTEMLQSYISEIGRSAKSYCEHTARTQPTLSDIVVTLVEMGFNVDTLPAYAKRSQRMVITAPPVTNQPVTPKALTAGQNRPHPPHIPSHFPEFPDPHTYIKTPTYREPVSDYQVLREKAASQRRDVERALTRFMAKTGETQSLFKDDVSTFPLIAARPFTIPYLTALLPSELEMQQMEETDSSEQDEQTDTENLALHISMEDSGAEKENTSVLQQNPSLSGSRNGEENIIDNPYLRPVKKPKIRRKKSLS
Q: Which results are given for B3?
A: binding result (TAF2): binds; binding result (TAF5): binds; binding result (TAF6): binds

Q: For B4, which “stoichiometry N” value (cryo-EM structure) is on record?
A: 2

B5: TAF9 (natural protein, human (endogenous in HeLa), UniProt Q16594 1-264, looked up)
chain: MESGKTASPKSMPKDAQMMAQILKDMGITEYEPRVINQMLEFAFRYVTTILDDAKIYSSHAKKATVDADDVRLAIQCRADQSFTSPPPRDFLLDIARQRNQTPLPLIKPYSGPRLPPDRYCLTAPNYRLKSLQKKASTSAGRITVPRLSVGSVTSRPSTPTLGTPTPQTMSVSTKVGTPMSLTGQRFTVQMPTSQSPAVKASIPATSAVQNVLINPSLIGSKNILITTNMMSSQNTANESSNALKRKREDDDDDDDDDDDYDNL
Q: Does B5 bind (TAF5)?
A: binds

Q: Does B5 bind (TAF6)?
A: binds
